Results published in US20100004162A1 (ROCKEFELLER UNIVERSITY, published 2010).
“And” between values parts separate entries of the source, which are not always exact repeats. Identical values can stand only once.

Tests used:
[1] = target: chicken α4β2 nicotinic acetylcholine receptor expressed in Xenopus oocytes (chicken) (UniProt P09482); assay: cell-based or functional assay
[2] = target: T1, nAChR alpha 7 subunit (chick alpha 7 construct) expressed in 293T cells (chick, UniProt P22770 24-502); assay: Far Western blot of extracts of transfected 293T cells
T1 construct: It was in the extract of transfected 293T cells, separated by SDS-PAGE and probed by Far Western
T1 sequence (P22770 24-502): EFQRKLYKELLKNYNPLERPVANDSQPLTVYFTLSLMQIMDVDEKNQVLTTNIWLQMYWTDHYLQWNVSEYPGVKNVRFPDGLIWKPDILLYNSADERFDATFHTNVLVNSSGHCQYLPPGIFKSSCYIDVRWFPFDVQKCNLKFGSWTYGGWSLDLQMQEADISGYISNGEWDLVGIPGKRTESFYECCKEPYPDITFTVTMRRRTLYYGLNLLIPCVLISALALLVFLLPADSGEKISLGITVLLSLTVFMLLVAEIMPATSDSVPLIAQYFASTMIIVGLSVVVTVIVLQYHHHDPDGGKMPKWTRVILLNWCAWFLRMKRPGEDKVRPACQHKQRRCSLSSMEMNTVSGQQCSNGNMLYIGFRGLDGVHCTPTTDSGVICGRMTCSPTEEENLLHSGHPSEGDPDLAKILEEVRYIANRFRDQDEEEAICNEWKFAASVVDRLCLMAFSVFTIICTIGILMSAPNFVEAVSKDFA
Text: Far Western Analysis. A fragment of the Lynx1 cDNA corresponding to the mature polypeptide was cloned in frame to the C-terminus of the coding sequence for the secreted human placental alkaline phosphatase (referred to as Lynx/AP). The APtag-4 vector was provided by Dr. John Flanagan (Cheng, H.-J. et al (1995) Cell 82, 371-381). Constructs were transfected into 293T cells using calcium phosphate precipitation. Conditioned media was collected and treated as described (Cheng, H.-J. et al (1995) Cell 82, 371-381): 20 μg of crude extract was electrophoretically separated and transferred to PVDF membrane (Immobilon P, Millipore). Filters were renatured as specified (Rodriguez, P. L. & Carrasco, L. (1994) Biotech. 17, 702-707), incubated overnight with equal amounts of cultured supernatants containing lynx/AP or unfused AP, washed, and treated with NBT/BCIP substrate according to manufacturer's directions (Pharmacia). To determine the relative activity of Lynx/AP protein compared to unfused AP, a dilution series of cultured supernatants was blotted onto nitrocellulose paper with a slot blot apparatus and reacted for AP activity.
The cells were harvested and lysed and cell extract was run out on an SDS-PAGE gel. […]

Sequence of chicken α4β2 nicotinic acetylcholine receptor expressed in Xenopus oocytes (chicken) (P09482 24-622, chain 1 of 2): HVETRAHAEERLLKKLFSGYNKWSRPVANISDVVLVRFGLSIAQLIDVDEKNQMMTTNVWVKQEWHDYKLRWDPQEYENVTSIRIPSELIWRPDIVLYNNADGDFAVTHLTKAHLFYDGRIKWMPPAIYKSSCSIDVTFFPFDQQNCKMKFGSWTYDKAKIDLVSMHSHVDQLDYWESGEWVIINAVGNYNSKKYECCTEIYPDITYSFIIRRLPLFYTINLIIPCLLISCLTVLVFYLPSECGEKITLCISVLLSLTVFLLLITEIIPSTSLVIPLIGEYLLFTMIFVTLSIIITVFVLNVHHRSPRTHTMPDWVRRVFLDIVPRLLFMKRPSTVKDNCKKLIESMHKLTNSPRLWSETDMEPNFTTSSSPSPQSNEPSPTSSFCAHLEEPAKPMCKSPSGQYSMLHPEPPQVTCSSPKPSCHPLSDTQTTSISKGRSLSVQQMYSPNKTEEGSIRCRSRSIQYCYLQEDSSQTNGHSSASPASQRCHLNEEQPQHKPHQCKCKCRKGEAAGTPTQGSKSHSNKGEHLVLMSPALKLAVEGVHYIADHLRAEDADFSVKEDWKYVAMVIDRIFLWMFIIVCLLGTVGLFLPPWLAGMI
Sequence of chicken α4β2 nicotinic acetylcholine receptor expressed in Xenopus oocytes (chicken) (P09484 19-491, chain 2 of 2, further chain): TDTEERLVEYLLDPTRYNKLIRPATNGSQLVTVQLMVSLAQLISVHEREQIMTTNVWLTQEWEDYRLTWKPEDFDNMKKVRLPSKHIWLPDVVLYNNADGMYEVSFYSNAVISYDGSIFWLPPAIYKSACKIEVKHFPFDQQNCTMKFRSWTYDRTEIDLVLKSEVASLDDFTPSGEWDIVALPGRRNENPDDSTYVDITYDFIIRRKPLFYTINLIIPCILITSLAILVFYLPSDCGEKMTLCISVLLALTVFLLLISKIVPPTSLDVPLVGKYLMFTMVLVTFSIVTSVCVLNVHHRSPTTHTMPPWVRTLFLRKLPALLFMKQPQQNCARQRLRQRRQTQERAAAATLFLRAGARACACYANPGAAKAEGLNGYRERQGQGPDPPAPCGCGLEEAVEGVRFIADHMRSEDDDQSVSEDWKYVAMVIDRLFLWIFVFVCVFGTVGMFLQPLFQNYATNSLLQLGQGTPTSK

Lynx1-HA (CMV2611), column purified Lynx1 (from UniProt P0DP60 21-92) (ligand)
amplitude of the ACh-evoked macroscopic currents [1]: 30% to 40% (2×) and 35%

B1: Lynx/AP fusion protein (other)
chain: LECHVCAYNGDNCFKPMRCPAMATYCMTTRTYFTPYRMKVRKSCVPSCFETVYDGYSKHASATSCCQYYLCN
notes: It was used as conditioned medium of transfected 293T cells; also called Lynx1-alkaline phosphatase (AP) fusion; Lynx/AP supernatant; not shown: secreted human placental alkaline phosphatase from the APtag-4 vector
binding result [2]: binds
